Experimental data as given in PMC7049730 (Nucleic Acids Research, 2019).

How the values were obtained:
[1] = target: P. furiosus Rad50 nucleotide binding domain L51C/D829N, LRET-labelled (UniProt P58301); experiment: LRET time course; details: Rad50 NBD in MRNBD complex with Mre11; after addition of saturating ATP; parent: est. 1.0; read off a plot
[2] = target: P. furiosus Rad50 nucleotide binding domain L51C/L828A, LRET-labelled (UniProt P58301); experiment: LRET time course; details: Rad50 NBD in MRNBD complex with Mre11; after addition of saturating ATP; parent: est. 1.0; read off a plot
[3] = target: P. furiosus Rad50 nucleotide binding domain L51C/L828F, LRET-labelled (UniProt P58301); experiment: LRET time course; details: Rad50 NBD in MRNBD complex with Mre11; after addition of saturating ATP; parent: est. 1.0; read off a plot
[4] = target: Mre11^HLH-Rad50^NBD, wild type (Pyrococcus furiosus) (UniProt P58301); experiment: SEC; Superdex 200 Increase 10/300 GL, 4 °C, with 5 mM ATP; fraction dimer = area of the dimer peak over the areas of monomer and dimer peaks; monomer to dimer
[5] = target: T1, Pf MR^NBD complex (Mre11-Rad50^NBD) (Pyrococcus furiosus, UniProt P58301, DEL196-708); experiment: Mre11 exonuclease assay, 2-aminopurine fluorescence (Exo2 dsDNA); type: biochemical; details: 1 mM AMP-PNP, 1 mM MnCl2, 5 mM MgCl2, 60 C, pH 7.5; binds Rad50 and stabilizes the closed state that occludes the Mre11 active site
T1 construct: ~180 kDa complex; with DNA double-strand break repair protein Mre11

[6] = target: the molecule itself; experiment: FRET or BRET; LRET between Tb3+ chelate (donor) and Bodipy FL (acceptor) on L51C of the two Rad50^NBD in MR^NBD complexes with Mre11; donor-sensitized acceptor lifetimes, three-exponential fit; no ATP (apo); 0.5 uM wild type, L828A, D829A or 2.0 uM L828F, D829N complexes; 50 mM Tris, 200 mM NaCl, 5 mM MgCl2, pH 7.5, 50 °C; percent of LRET-visible molecules only
[7] = target: the molecule itself; experiment: FRET or BRET; as a1 but with 2 mM ATP (ATP-bound); MR^NBD complexes with Mre11; 50 mM Tris, 200 mM NaCl, 5 mM MgCl2, pH 7.5, 50 °C; percent of LRET-visible molecules only
[8] = target: the molecule itself; experiment: FRET or BRET; LRET time course: increase of donor-sensitized Bodipy FL emission after addition of 2 mM ATP to MR complexes; kex = k_assoc + k_dissoc of open to closed; 50 mM Tris, 200 mM NaCl, 5 mM MgCl2, pH 7.5, 50 °C

Molecule	percent of molecules in the closed state [6]	percent of molecules in the closed state [7]	fold faster approach to equilibrium (kex) than wild type [8]	also measured
P. furiosus Rad50 nucleotide binding domain L51C, LRET-labelled (from UniProt P58301) D829N				ratio to parent [1]: 8.7
P. furiosus Rad50 nucleotide binding domain L51C, LRET-labelled (from UniProt P58301) L828A				ratio to parent [2]: 4.4
P. furiosus Rad50 nucleotide binding domain L51C, LRET-labelled (from UniProt P58301) L828F				ratio to parent [3]: 4.2
Mre11^HLH-Rad50^NBD, wild type (from UniProt P58301 1-195; P58301 709-882) (complex)				percent converted to a stable dimer upon addition of ATP [4]: 30%; stoichiometry N [4]: 2
Nc1ncnc2c1ncn2[C@@H]1O[C@H](COP(=O)(O)OP(=O)(O)NP(=O)(O)O)[C@@H](O)[C@H]1O [AMP-PNP]				Mre11 exonuclease assay, 2-aminopurine fluorescence (Exo2 dsDNA) [5]: AMP-PNP, which stabilizes the complex into the closed state and occludes the Mre11 active
P. furiosus Rad50 nucleotide binding domain L51C/L828F, LRET-labelled (domain or fragment, Pyrococcus furiosus, Tb3+ chelate DTPA-cs124-EMPH (donor) or Bodipy FL maleimide (acceptor) on the cysteine L51C, Rad50, Pyrococcus furiosus, amino acids 1-195; linker that replaces most of the coiled-coil and the Zn-hook; Rad50, Pyrococcus furiosus, amino acids 709-882; Measured within the MR^NBD complex with Mre11; also called L828F MR^NBD (LRET); source: labelled and passed over Superdex 200 Increase) MKLERVTVKNFRSHSDTVVEFKEGINLIIGQNGSGKSSLLDAILVGLYWPCRIKDIKKDEFTKVGARDTYIDLIFEKDGTKYRITRRFLKGYSSGEIHAMKRLVGNEWKHVTEPSSKAISAFMEKLIPYNIFLNAIYIRQGQIDAILESDEAREKVVREVLNLDKFETAYKKLSELKKTINNRIKEYRDILARTEGGAGGAGGRERVKKEIKDLEKAKDFTEELIEKVKKYKALAREAALSKIGELASEIFAEFTEGKYSEVVVRAEENKVRLFVVWEGKERPLTFLSGGERIALGLAFRLAMSLYLAGEISLLILDEPTPYFDEERRRKLITIMERYLKKIPQVILVSHDEELKDAADHVIRISLENGSSKVEVVS	30%	30%	~4 fold	
P. furiosus Rad50 nucleotide binding domain L51C/D829N, LRET-labelled (domain or fragment, Pyrococcus furiosus, Tb3+ chelate DTPA-cs124-EMPH (donor) or Bodipy FL maleimide (acceptor) on the cysteine L51C, Rad50, Pyrococcus furiosus, amino acids 1-195; linker that replaces most of the coiled-coil and the Zn-hook; Rad50, Pyrococcus furiosus, amino acids 709-882; Measured within the MR^NBD complex with Mre11; also called D829N MR^NBD (LRET); source: labelled and passed over Superdex 200 Increase) MKLERVTVKNFRSHSDTVVEFKEGINLIIGQNGSGKSSLLDAILVGLYWPCRIKDIKKDEFTKVGARDTYIDLIFEKDGTKYRITRRFLKGYSSGEIHAMKRLVGNEWKHVTEPSSKAISAFMEKLIPYNIFLNAIYIRQGQIDAILESDEAREKVVREVLNLDKFETAYKKLSELKKTINNRIKEYRDILARTEGGAGGAGGRERVKKEIKDLEKAKDFTEELIEKVKKYKALAREAALSKIGELASEIFAEFTEGKYSEVVVRAEENKVRLFVVWEGKERPLTFLSGGERIALGLAFRLAMSLYLAGEISLLILDEPTPYLNEERRRKLITIMERYLKKIPQVILVSHDEELKDAADHVIRISLENGSSKVEVVS	33%	33%	~8 fold	
P. furiosus Rad50 nucleotide binding domain L51C/D829A, LRET-labelled (domain or fragment, Pyrococcus furiosus, Tb3+ chelate DTPA-cs124-EMPH (donor) or Bodipy FL maleimide (acceptor) on the cysteine L51C, Rad50, Pyrococcus furiosus, amino acids 1-195; linker that replaces most of the coiled-coil and the Zn-hook; Rad50, Pyrococcus furiosus, amino acids 709-882; Measured within the MR^NBD complex with Mre11; also called D829A MR^NBD (LRET); source: labelled and passed over Superdex 200 Increase) MKLERVTVKNFRSHSDTVVEFKEGINLIIGQNGSGKSSLLDAILVGLYWPCRIKDIKKDEFTKVGARDTYIDLIFEKDGTKYRITRRFLKGYSSGEIHAMKRLVGNEWKHVTEPSSKAISAFMEKLIPYNIFLNAIYIRQGQIDAILESDEAREKVVREVLNLDKFETAYKKLSELKKTINNRIKEYRDILARTEGGAGGAGGRERVKKEIKDLEKAKDFTEELIEKVKKYKALAREAALSKIGELASEIFAEFTEGKYSEVVVRAEENKVRLFVVWEGKERPLTFLSGGERIALGLAFRLAMSLYLAGEISLLILDEPTPYLAEERRRKLITIMERYLKKIPQVILVSHDEELKDAADHVIRISLENGSSKVEVVS	42%	60%		
P. furiosus Rad50 nucleotide binding domain L51C/L828A, LRET-labelled (domain or fragment, Pyrococcus furiosus, Tb3+ chelate DTPA-cs124-EMPH (donor) or Bodipy FL maleimide (acceptor) on the cysteine L51C, Rad50, Pyrococcus furiosus, amino acids 1-195; linker that replaces most of the coiled-coil and the Zn-hook; Rad50, Pyrococcus furiosus, amino acids 709-882; Measured within the MR^NBD complex with Mre11; also called L828A MR^NBD (LRET); source: labelled and passed over Superdex 200 Increase) MKLERVTVKNFRSHSDTVVEFKEGINLIIGQNGSGKSSLLDAILVGLYWPCRIKDIKKDEFTKVGARDTYIDLIFEKDGTKYRITRRFLKGYSSGEIHAMKRLVGNEWKHVTEPSSKAISAFMEKLIPYNIFLNAIYIRQGQIDAILESDEAREKVVREVLNLDKFETAYKKLSELKKTINNRIKEYRDILARTEGGAGGAGGRERVKKEIKDLEKAKDFTEELIEKVKKYKALAREAALSKIGELASEIFAEFTEGKYSEVVVRAEENKVRLFVVWEGKERPLTFLSGGERIALGLAFRLAMSLYLAGEISLLILDEPTPYADEERRRKLITIMERYLKKIPQVILVSHDEELKDAADHVIRISLENGSSKVEVVS	46%	54%	~4 fold	
